From paper PMC8103107 (2021)

Target: recombinant NRP1-derived trap consisting of the extracellular domain of NRP1 (UniProt O14786 22-856)
Assay: SPR

recombinant NRP1-derived trap consisting of the extracellular domain of NRP1, sequence (O14786 22-856): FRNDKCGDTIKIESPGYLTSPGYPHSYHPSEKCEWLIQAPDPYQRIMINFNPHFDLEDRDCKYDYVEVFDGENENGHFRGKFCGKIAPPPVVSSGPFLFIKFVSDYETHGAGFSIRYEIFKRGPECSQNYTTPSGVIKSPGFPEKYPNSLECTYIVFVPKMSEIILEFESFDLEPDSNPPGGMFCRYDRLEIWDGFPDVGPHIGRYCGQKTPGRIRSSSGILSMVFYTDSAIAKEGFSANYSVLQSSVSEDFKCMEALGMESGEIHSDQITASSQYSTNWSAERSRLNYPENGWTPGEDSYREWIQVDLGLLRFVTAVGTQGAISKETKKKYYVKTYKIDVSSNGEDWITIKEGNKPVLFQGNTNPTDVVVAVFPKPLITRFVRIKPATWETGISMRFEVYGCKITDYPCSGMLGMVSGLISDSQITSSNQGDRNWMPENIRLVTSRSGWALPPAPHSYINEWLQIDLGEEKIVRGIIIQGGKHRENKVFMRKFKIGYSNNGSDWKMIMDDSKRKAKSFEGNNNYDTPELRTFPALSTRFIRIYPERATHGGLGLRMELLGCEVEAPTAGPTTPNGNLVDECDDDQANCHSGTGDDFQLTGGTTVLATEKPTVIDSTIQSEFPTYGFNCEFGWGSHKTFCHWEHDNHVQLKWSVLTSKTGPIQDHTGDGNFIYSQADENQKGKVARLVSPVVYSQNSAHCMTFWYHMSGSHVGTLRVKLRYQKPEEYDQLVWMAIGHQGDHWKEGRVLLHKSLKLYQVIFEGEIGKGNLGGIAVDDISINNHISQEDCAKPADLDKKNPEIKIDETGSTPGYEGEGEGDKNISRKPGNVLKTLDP

| Binder | koff [s⁻¹] |
| --- | --- |
| vascular endothelial growth factor A (ligand, Assumed to be VEGF165, the customary recombinant product, because the isoform is not printed. Mature residues 1-165 equal entry residues 207-395 with the exon 6a region 321-345 replaced by the splice-junction Asn. K321N is this natural splice residue, not an engineered mutation. Disulfide-linked antiparallel homodimer.) APMAEGGGQNHHEVVKFMDVYQRSYCHPIETLVDIFQEYPDEIEYIFKPSCVPLMRCGGCCNDEGLECVPTEESNITMQIMRIKPHQGQHIGEMSFLQHNKCECRPKKDRARQENPCGPCSERRKHLFVQDPQTCKCSCKNTDSRCKARQLELNERTCRCDKPRR | 0.0012 |
| Semaphorin 3A (ligand) NYQNGKNNVPRLKLSYKEMLESNNVITFNGLANSSSYHTFLLDEERSRLYVGAKDHIFSFDLVNIKDFQKIVWPVSYTRRDECKWAGKDILKECANFIKVLKAYNQTHLYACGTGAFHPICTYIEIGHHPEDNIFKLENSHFENGRGKSPYDPKLLTASLLIDGELYSGTAADFMGRDFAIFRTLGHHHPIRTEQHDSRWLNDPKFISAHLISESDNPEDDKVYFFFRENAIDGEHSGKATHARIGQICKNDFGGHRSLVNKWTTFLKARLICSVPGPNGIDTHFDELQDVFLMNFKDPKNPVVYGVFTTSSNIFKGSAVCMYSMSDVRRVFLGPYAHRDGPNYQWVPYQGRVPYPRPGTCPSKTFGGFDSTKDLPDDVITFARSHPAMYNPVFPMNNRPIVIKTDVNYQFTQIVVDRVDAEDGQYDVMFIGTDVGTVLKVVSIPKETWYDLEEVLLEEMTVFREPTAISAMELSTKQQQLYIGSTAGVAQLPLHRCDIYGKACAECCLARDPYCAWDGSACSRYFPTAKRRTRRQDIRNGDPLTHCSDLHHDNHHGHSPEERIIYGVENSSTFLECSPKSQRALVYWQFQRRNEERKEEIRVDDHIIRTDQGLLLRSLQQKDSGNYLCHAVEHGFIQTLLKVTLEVIDTEHLEELLHKDDDGDGSKTKEMSNSMTPSQKVWYRDFMQLINHPNLNTMDEFCEQVWKRDRKQRRQRPGHTPGNSNKWKHLQENKKGRNRRTHEFERAPRSV | 0.000155 |
